In publication PMC5862942, “JMJD5 is a human arginyl C-3 hydroxylase” (Nature Communications, 2018):
Where no end group is shown, it is not given here.

Molecular target: N-terminally truncated JMJD5 (Jumonji-C domain-containing protein 5), wild type (human, UniProt Q8N371 183-416)
Test: cell-based or functional assay

Sequence of N-terminally truncated JMJD5 (Jumonji-C domain-containing protein 5), wild type (Q8N371 other isoform, or with tags, fused parts or gaps): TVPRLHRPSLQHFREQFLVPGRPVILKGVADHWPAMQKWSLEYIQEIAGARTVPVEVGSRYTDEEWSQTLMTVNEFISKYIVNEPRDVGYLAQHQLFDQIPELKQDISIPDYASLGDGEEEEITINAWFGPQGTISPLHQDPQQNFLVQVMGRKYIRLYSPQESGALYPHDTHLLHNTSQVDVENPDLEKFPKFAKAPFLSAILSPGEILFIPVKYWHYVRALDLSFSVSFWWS

Binder: VPRRLGPKRASRIRKL-NH2 [40S ribosomal protein S6 (RPS6) peptide, residues 129-144]
- apparent Km of the RPS6 129-144 peptide in JMJD5-catalysed Arg137 hydroxylation (MALDI-MS-based assay, 37 °C): 60.4 µM
